Patent publication CN114958811A
Where two headings read alike, the source gives them in different places.

Tests used:
[1] = molecular target: RBD-Fc (义翘神州 40592-V05H) (SARS-CoV-2) (UniProt P0DTC2)
[2] = molecular target: RBD-Fc (义翘神州 40592-V05H) (SARS-CoV-2) (UniProt P0DTC2); remark: listed apart in the source

How did the IC50 [1] turn out when “hACE2-Fc融合蛋白 (fusion of the human ACE2 extracellular domain with the Fc fragment of human IgG1) (Fc fusion)” was run?
Its IC50 is 5.02 nM.

And the IC50 [2]?
The IC50 was 7.6 nM.
